Test results from patent US6602854B1, “Branched multimeric Apo A-I agonist compounds” (priority 1997, dated 2003).
Where no end group is shown, it is not given here. [ ]: non-standard residue; d: D form. Nal = non-natural residue; Aib = CC(C)(N)C(=O)O

Columns and labels:
[1] = Circular dichroism: degree of helicity (free, SUVs, micelles, TFE); details: for He (%) free: percent helicity of free, unbound peptide; for He (%) SUVs: percent helicity of peptide-SUV complexes; for He (%) TFE: percent helicity of peptide-TFE solution; for He (%) mics: percent helicity of peptide-micelle complexes
Procedure: Far UV circular dichroism spectra were recorded between 190 and 260 nm (in 0.5 nm or 0.2 nm increments) with a AVIV62DS spectrometer (AVIV Associates, Lakewood, N.J., USA) equipped with a thermoelectric cell holder and sample changer. The instrument was calibrated with (+)-10-camphoric acid. Between one and three scans were collected for each sample, using 10 cm, 5 cm, 1 cm and 0.1 cm path length quartz Suprasil cells, respectively, for peptide concentrations of 10^−7 M to 10^−4 M. The bandwidth was fixed at 1.5 nm and the scan speed to 1 s per wavelength step. The reported data are the mean of at least 2 or 3 independent measurements.
After background substraction, spectra were converted to molar ellipticity (θ) per residue in deg. […] dmol^−1. The peptide concentration was determined by amino acid analysis and also by absorption spectrometry on a Perkin Elmer Lambda 17 UV/Visible spectrophotometer when the peptide contained a chromophore (tryptophane, dansyl, naphtylalanine).
CD spectra were obtained with free, unbound peptide (5 μM in 5 mM phosphate buffer, pH 7.4); with peptide-SUV complexes (20:1 EPC:Chol., Ri=30 and Ri=50); with peptide-micelle complexes (1-myristoyl-2-hydroxy-sn-glycero-3-phosphatidyl choline, Ri=100); and with free, unbound peptide in the presence of 2,2,2-trifluoroethanol (TFE) (5 μM peptide, 90% vol TFE).
The SUVs were obtained by dispersing the lipids (10 mM, 20:1 EPC:Chol., Avanti Polar Lipids, Ala.) in phosphate buffer (5 mM, pH 7.4) with bubbling N2 for 5 min., followed by sonication (1.5 hr.) in a bath sonicator. The homogeneity of the preparation was checked by FPLC.
The micelles were obtained by dispersing the lipid (6 mM 1-myristoyl-2-hydroxy-sn-glycero-3-phosphatidyl choline, Avanti Polar Lipids, AL) in phosphate buffer (5 mM, pH 7.4) with bubbling N2 for 5 min., followed by vortexing.
To obtain the peptide-SUV complexes, SUVs were added to the peptide (5 μM in 5 mM phosphate buffer, pH 7.4) at a phospholipid-peptide molar ratio (Ri) of 30 or 50.
To obtain the peptide-micelle complexes, micelles were added to the peptide (5 μM in 5 mM phosphate buffer, pH 7.4) at a Ri of 100.
All spectra were recorded at 37° C. The stability of peptide 4 (SEQ ID NO:4) as a function of temperature (both free in buffer and in micelles) was determined by recording spectra at a series of different temperatures.
The degree of helicity of peptide 4 (SEQ ID NO:4) as a function of concentration was also determined.
The degree of helicity of the peptides in the various conditions was determined from the mean residue ellipticity at 222 nm (Chen et al., 1974, Biochemistry 13:3350-3359) or by comparing the CD spectra obtained to reference spectra available on databases (16 helical reference spectra from Provencher & Glockner, 1981, Biochemistry 20:33-37; denatured protein reference spectra from Venyaminov et al., 1993, Anal. Biochem. 214:17-24) using the CONTIN curve-fitting algorithm version 2DP, CD-1 pack (Aug. 1982) (Provencher, 1982, Comput. Phys. Commun. 27:213-227, 229-242). Acceptable fit was determined using the statistical analysis methodology provided by the CONTIN algorithm.

[2] = HDL cholesterol in rabbits after injection of phospholipid/peptide complexes; assay type: in vivo, Male New Zealand White rabbits
Procedure: Small discoidal particles consisting of phospholipid (DPPC) and peptide were prepared following the cholate dialysis method. The phospholipid was dissolved in chloroform and dried under a stream of nitrogen. The peptide was dissolved in buffer (saline) at a concentration of 1-2 mg/ml. The lipid film was redissolved in buffer containing cholate (43° C.) and the peptide solution was added at a 3:1 phospholipid/peptide weight ratio. The mixture was incubated overnight at 43° C. and then dialyzed at 43° C. (24 hr.), room temperature (24 hr.) and 4° C. (24 hr.), with three changes of buffer (large volumes) at temperature point. The complexes were filter sterilized (0.22 μm) for injection and storage at 4° C.
Male New Zealand White rabbits (2.5-3 kg) were injected intravenously with a dose of phospholipid/peptide complex (5 or 10 mg/kg bodyweight, expressed as peptide) in a single bolus injection not exceeding 10-15 ml. The animals were slightly sedated before the manipulations. Blood samples (collected on EDTA) were taken before and 5, 15, 30, 60, 240 and 1440 minutes after injection. The hematocrit (Hct) was determined for each sample. Samples were aliquoted and stored at −20° C. before analysis.
Plasma Lipids. The total plasma cholesterol, plasma triglycerides and plasma phospholipids were determined enzymatically using commercially available assays according to the manufacturer's protocols (Boehringer Mannheim, Mannheim, Germany and Biomerieux, 69280, Marcy-L'étoile, France).
Lipoprotein Profiles. The plasma lipoprotein profiles of the fractions obtained after the separation of the plasma into its lipoprotein fractions were determined by spinning in a sucrose density gradient. The fractions were collected and in each individual fraction the phospholipid and cholesterol content was measured enzymatically.

Substance	He (%) free [1]	He (%) SUVs [1]	He (%) TFE [1]	He (%) mics [1]	other results
220 (PVLDLFRELLEELQKKLK) [compound 220]	27%	54%	64%	64%	–
223 (PVLDAFRELLEALAQLKK) [compound 223]	21%	23%	51%	56%	–
240 (Ac-DWLKAFYDKVAEKLKEAF-NH2) [compound 240]	16%	59%	57%	68%	–
DWFKAFYDKVAEKFKEAF [peptide 243, reference compound]	10%	50%	–	64%	–
DWLKAFYDKVAEKLKEAF [peptide 244, reference compound]	9%	13%	48%	40%	–
DWLKAFYDKVFEKFKEFF [peptide 245, reference compound]	38%	70%	–	77%	–
EWLKAFYEKVLEKLKELF [peptide 248, reference compound]	18%	13%	–	45%	–
EWLKAFYEKVLEKLKELF* [peptide 238, reference compound]	49%	60%	58%	72%	–
LDDLLQKWAEAFNQLLKK [peptide 237, reference compound]	30%	45%	–	66%	–
PVLDEFREKLNEALEALKQKLK [peptide 94, reference compound]	18%	27%	63%	70%	–
PVLDEFREKLNERLEALKQKLK [peptide 109, reference compound]	19%	23%	58%	45%	–
PVLDFFRELLNEXLEALKQKLK (PVLDFFRELLNE[Aib]LEALKQKLK) [peptide 25]	46%	–	93%	82%	–
PVLDLFKELLNELLEALKQKLK [peptide 7]	77%	85%	73%	89%	–
PVLDLFRELLNEGLEALKQKLK [peptide 8]	20%	61%	93%	90%	% helicity in the presence of TFE [1]: 93%; helical structure in the presence of lipids [1]: 61-93%; % Helicity Free ([1]; peptide concentration 5.0 μM, free in buffer): 20%
PVLDLFRELLNELLEWLKQKLK [peptide 3]	70%	80%	95%	95%	Increase (%) in HDL cholesterol ([2]; 10 mg/kg as peptide/DPPC complexes, 15 min): 84%; Increase (%) in HDL cholesterol ([2]; 10 mg/kg as peptide/DPPC complexes, 30 min): 71%; Increase (%) in HDL cholesterol ([2]; 10 mg/kg as peptide/DPPC complexes, 60 min): 60%; Increase (%) in HDL cholesterol ([2]; 10 mg/kg as peptide/DPPC complexes, 240 min): 14.5%
PVLDLFRELLNELLEZLKQKLK (PVLDLFRELLNELLE[Nal]LKQKLK; not fully specified) [peptide 1, Z is Nal]	77%	81%	69%	85%	Increase (%) in HDL cholesterol ([2]; 5 mg/kg as peptide/DPPC complexes, 15 min): 24.3%; Increase (%) in HDL cholesterol ([2]; 5 mg/kg as peptide/DPPC complexes, 30 min): 95%; Increase (%) in HDL cholesterol ([2]; 5 mg/kg as peptide/DPPC complexes, 60 min): 40.7%; Increase (%) in HDL cholesterol ([2]; 5 mg/kg as peptide/DPPC complexes, 240 min): 29%
PVLDLFRELLNELWEALKQKLK [peptide 28]	82%	90%	81%	98%	–
PVLDLFRELLNEXLEALKQKLK (PVLDLFRELLNE[Aib]LEALKQKLK) [peptide 6]	57%	70%	99%	93%	–
